The values that follow come from the supplement of paper PMC12042874.

± gives the uncertainty stated by the source.

This series in a line: amyloid nucleation score (Sup35N fusion, yeast selection) (log enrichment); library NNK1; higher = more nucleation; inactive = no reads after selection. An outline of the steps: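 The nucleation score, computed with DiMSum, is the log enrichment of output over input reads, centred on the mode score of non-aggregating sequences. Sequences with under 100 input reads were dropped. Reads were generated by Illumina sequencing of plasmid inserts from psi-negative yeast with Sup35N fused to peptides of 20 random codons, induced with 100 μM copper sulfate for 24 hours and grown 7 days at 30°C on medium lacking adenine and uracil.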
For the substance ELSGGA, the amyloid nucleation score came to 3.75 ± 0.1.

ELTGFFFCVRTSKCRIW showed an amyloid nucleation score of 0.533 ± 0.46.

With ELTRGLWRFGAEWWATQQKT, the amyloid nucleation score was 0.364 ± 0.31.

As for ELVSS, the amyloid nucleation score is -0.455 ± 0.26.

The substance EMAELLAMRQLLRTKIH had an amyloid nucleation score of 0.265 ± 0.34.

In the case of EMGSSLYTRHGNVRSLAFGW, the amyloid nucleation score is 0.242 ± 0.48.

Regarding EMNVSILKHAYSQALSFARW, the amyloid nucleation score is -0.068 ± 0.45.

Consider EMRNLNLYVLAEPNGVGNSA, for which the amyloid nucleation score entry is “inactive”.

For ENGIGN, the amyloid nucleation score came out at 0.453 ± 0.22.

In the case of ENPDW, the amyloid nucleation score was determined as 1.66 ± 0.73.

Consider ENPWFMCICYGANRVHVCNG, for which the amyloid nucleation score came out at 0.539 ± 0.33.

The substance ENQFTVLSNGFDVIALFSFE yielded an amyloid nucleation score of 1.07 ± 0.93.

As to EPFGLGFRRNDLSYANRVGS, the amyloid nucleation score is -0.887 ± 1.3.

Substance EPSGLLFSTLGTSTYGYIQF had an amyloid nucleation score of 2.27 ± 0.11.

Turning to EPTDYWRVY, the amyloid nucleation score entry was “inactive”.

On to EQAGVRVTDYVAVELLFWRF, for which the amyloid nucleation score was 0.826 ± 0.39.

EQRVNLISVWIRGDLETPHG registered an amyloid nucleation score of 0.47 ± 0.73.

ERAKRSY registered an amyloid nucleation score of 3.04 ± 0.069.

Substance ERFLFGSMSTYANGRCVGAY displayed an amyloid nucleation score of -1.11 ± 2.4.

Turning to ERTMGLSVMWAIECCLRNPG, the amyloid nucleation score came out at 2.05 ± 0.24.

Turning to ERVLYIGFYTYVDNCFRLLK, the amyloid nucleation score is -0.12 ± 0.34.

Consider ESFGRTISVTELSHMT, for which the amyloid nucleation score amounted to 0.487 ± 0.39.

The substance ESLRDRARWGNCMQILICSL displayed an amyloid nucleation score of -0.055 ± 0.55.

As for ESLREVTLYATKSLWMNLRL, the amyloid nucleation score was -1.83 ± 1.1.

ESRCRTLKIVLCCGFLSDWP: the amyloid nucleation score entry was “inactive”.

As for ESTSYCKSDYLVRFVFEDGL, the amyloid nucleation score was -0.294 ± 0.39.

On to ETHLIGVCYNRCL, for which the amyloid nucleation score came out at 0.643 ± 0.42.

Consider ETLAFVLRFRNREDFCGGMV, for which the amyloid nucleation score came out at 1.01 ± 0.64.

For the substance ETLSFGKHLPRVHAFHHVRC, the amyloid nucleation score is -0.671 ± 1.2.

Regarding ETSPF, the amyloid nucleation score is -0.03 ± 0.76.

In turn, EVASGVCTRIRLYSRCEWKG had an amyloid nucleation score of 2.84 ± 0.091.

EVCFCEGEVKFWGKGAIFSR displayed an amyloid nucleation score of -1.88 ± 1.8.

In the case of EVGHFRSDVDLFWV, the amyloid nucleation score was -1.04 ± 0.44.

Substance EVIVYKTFEDVSQRVRHNWN gave an amyloid nucleation score of 1.89 ± 0.22.

Turning to EVLKVSHSF, the amyloid nucleation score was -0.009 ± 0.46.

For the substance EVLNIYLHNRLNVLFTELAS, the amyloid nucleation score was -0.884 ± 1.4.

As for EVRSSFYPSHYYRALRDL, the amyloid nucleation score was -1.37 ± 2.4.

The substance EVSIFGDRIHIELHLVGEVL returned an amyloid nucleation score of -1.12 ± 2.1.

Turning to EWACFRGAYPAYSDLFR, the amyloid nucleation score is -0.327 ± 0.67.

EWYLIYGGTRSGLIYRSYAR showed an amyloid nucleation score of 0.109 ± 0.38.

With EYLAFDVPNWVGFLGSLWNM, the amyloid nucleation score is -0.064 ± 0.8.

The substance EYWGRGEVRADMWRRWIGW had an amyloid nucleation score of 1.23 ± 0.4.

FASASLLFSKPESG returned an amyloid nucleation score of -1.41 ± 2.4.

In turn, FASMIFSRASSSSDNIFFRN displayed an amyloid nucleation score of 0.361 ± 0.22.

FASWFFMCRDGGLIM showed an amyloid nucleation score of -0.573 ± 0.66.

Take FATAGKFVY: the amyloid nucleation score is -1.23 ± 1.2.

FAWLGCFSWTLNFWDKYMRG: the amyloid nucleation score is -0.856 ± 1.4.

The substance FAYGI showed an amyloid nucleation score of -0.633 ± 0.62.

FCDRNIIVCSELGKGWLWLR registered an amyloid nucleation score of 1.4 ± 0.25.

The substance FCLYISTIDID yielded an amyloid nucleation score of 0.556 ± 0.59.

Turning to FCNSALLSQLGFLKTWDQRG, the amyloid nucleation score is -0.604 ± 1.6.

For the substance FCPNHHNCVISCEWHSGALR, the amyloid nucleation score was 2.51 ± 0.13.

As for FCPTVETYNVW, the amyloid nucleation score is 2.12 ± 0.14.

FCRKSQEKYWVPFK returned an amyloid nucleation score of -0.667 ± 1.

In the case of FCSSSLFHKVTLG, the amyloid nucleation score was -0.043 ± 0.77.

The substance FCVRICNCRIWCLCSLTKSL had an amyloid nucleation score of -0.624 ± 0.46.

FDAAIVLCSDVSIKGCLSRN displayed an amyloid nucleation score of 1.27 ± 0.27.

FDFYSLRRGGVNYRSLLQVI gave an amyloid nucleation score of 0.25 ± 0.84.

As for FDGFNFISWIVR, the amyloid nucleation score was 2.06 ± 0.11.

FDRFCFIIIVQYSFHG showed an amyloid nucleation score of 1.35 ± 0.76.

Substance FDSLVSREFVP yielded an amyloid nucleation score of -0.887 ± 1.5.

The substance FEFDNR yielded an amyloid nucleation score of -0.003 ± 0.53.

With FELICRW, the amyloid nucleation score was 0.516 ± 1.1.

In turn, FEVSGMCRVQVVTYNFFSSS registered an amyloid nucleation score of 6.99 ± 0.088.

Consider FEWRFPHQR, for which the amyloid nucleation score is -0.025 ± 0.64.

As for FFCSNDLSFVAELILINRQV, the amyloid nucleation score was found to be 0.87 ± 0.58.

As to FFDSRFLFDSRTGSMYA, the amyloid nucleation score is -1.71 ± 1.5.

Turning to FFDYGDAWSFHRMNNWDVLY, the amyloid nucleation score was -0.935 ± 0.62.

Substance FFFKAFDLATTSLGRYNMCN showed an amyloid nucleation score of -0.66 ± 0.52.

FFGGNSAVVVIRWMSRSGHW gave an amyloid nucleation score of 0.489 ± 0.64.

In turn, FFILW had an amyloid nucleation score of -0.75 ± 1.2.

FFISALLNSSFGEFTFGSVK registered an amyloid nucleation score of -0.432 ± 0.65.

For FFKNLCSRGCLCSYGMVQTV, the amyloid nucleation score came to 0.396 ± 0.58.

For the substance FFLMIQSVT, the amyloid nucleation score stood at 0.84 ± 0.47.

Substance FFMLFRCGF yielded an amyloid nucleation score of 0.333 ± 0.87.

Turning to FFRVLFFTFLAWYVELKWQL, the amyloid nucleation score was -0.201 ± 0.78.

Turning to FFVGLPYTNSYHIPHVF, the amyloid nucleation score result was “inactive”.

As to FFVKMHIFSFFQVATVVYMH, the amyloid nucleation score came out at 0.043 ± 0.33.

With FFVVMVIDNKHPQQENSRIR, the amyloid nucleation score was found to be 1.74 ± 0.34.

With FFWYPTFISFDRKFEVTIGP, the amyloid nucleation score came out at 5.07 ± 0.053.

FGAFYVGDHG had an amyloid nucleation score of -1.7 ± 1.3.

As for FGCTKANT, the amyloid nucleation score was -0.657 ± 1.1.

The substance FGHGV returned an amyloid nucleation score of -0.626 ± 1.6.

With FGICKYFNRFVMNIRSVDES, the amyloid nucleation score is -0.618 ± 0.52.

FGLTCRLHKAVFRFYNKRTS: the amyloid nucleation score result is “inactive”.

For FGPGCCIFL, the amyloid nucleation score was found to be 7.481 ± 0.054.

On to FGQSQPCDVTRENFCKEACN, for which the amyloid nucleation score was -0.028 ± 0.9.

Turning to FGSSVSAVNFRVV, the amyloid nucleation score was -0.448 ± 0.4.

The substance FGWRISILLVPHRLFRGLPQ returned an amyloid nucleation score of -0.85 ± 1.9.

FGYRMAYGSHVFVHSYRTEP came in with an amyloid nucleation score of 2.42 ± 0.24.

Substance FGYVDPRQCDISEHLPLSTV showed an amyloid nucleation score of -0.345 ± 0.61.

FHGSGESVNTDTMLTLYISV showed an amyloid nucleation score of -0.157 ± 0.54.

FHHMVLE: the amyloid nucleation score is -0.783 ± 0.54.

Substance FHYWFIIKVPTWMVYRDLTA returned an amyloid nucleation score of -0.203 ± 0.34.

FIAQLYVNEMFDSLTLRRGD displayed an amyloid nucleation score of 0.415 ± 0.33.

Turning to FICRFDVHWHSGMFSLYPWC, the amyloid nucleation score stood at 0.682 ± 0.47.

In turn, FIDRIYSIVYGVGGCMMSLI had an amyloid nucleation score of 0.008 ± 0.47.

Take FIEHQTRSFDKILSYAWLEA: the amyloid nucleation score was determined as 0.379 ± 0.61.

The substance FIISSTQPRCRAPLTS showed an amyloid nucleation score of -0.165 ± 0.56.

In the case of FIIWHELWKVMWSSTALSLD, the amyloid nucleation score was found to be 0.769 ± 0.69.

Regarding FINDYMIQYSLHLQVLMST, the amyloid nucleation score is 3.95 ± 0.074.

The substance FIRGLCNVLGCSR came in with an amyloid nucleation score of 1.04 ± 0.24.

Turning to FISRCSFAGSCVK, the amyloid nucleation score is -1.27 ± 1.7.

On to FIYLVLLSR, for which the amyloid nucleation score amounted to 1.32 ± 0.23.

Turning to FKEDITFADGISDWSCQYTM, the amyloid nucleation score result was “inactive”.

In the case of FKHDYKFEGVCRVNDFLMGF, the amyloid nucleation score is -0.115 ± 0.9.

FKSILRYPADRKMS: the amyloid nucleation score is 0.997 ± 0.76.

As to FKVIYARFVTIWVAVRRAFL, the amyloid nucleation score was determined as 0.051 ± 0.69.

FKVVF came in with an amyloid nucleation score of -0.909 ± 1.9.

FKYALKTSCLLIVQDGGSMR had an amyloid nucleation score of -0.023 ± 1.4.

In turn, FLAIILSWPFSAQFGFNVEG gave an amyloid nucleation score of 0.533 ± 0.62.

In the case of FLARNFCIC, the amyloid nucleation score worked out at 5.67 ± 0.064.

In turn, FLCHWLYFRNSYGGYVSRW registered an amyloid nucleation score of 1.92 ± 0.4.

With FLCLLMFPIRHRL, the amyloid nucleation score stood at 0.004 ± 0.33.

FLDASVDKSLSYPGHIVAFR registered an amyloid nucleation score of -1.57 ± 1.7.

FLEFAYVVFKILEKNGGLSY: the amyloid nucleation score is -1.56 ± 0.86.

FLFFRS gave an amyloid nucleation score of 4.62 ± 0.086.

FLGLNQLNFWFGAS displayed an amyloid nucleation score of 7.845 ± 0.045.

In turn, FLGTI gave an amyloid nucleation score of -1.08 ± 2.7.

Regarding FLHFVYRI, the amyloid nucleation score is -0.578 ± 1.

The substance FLLLCRSFFSARTILRCTMG had an amyloid nucleation score of 0.072 ± 0.81.

FLMFQGSYIYRNTGFYSSSD registered an amyloid nucleation score of -0.176 ± 0.95.

FLNLGSSDQSHYSCTKEWSH showed an amyloid nucleation score of -0.157 ± 0.51.

Regarding FLNNTGAQSKLFLDVSVRQG, the amyloid nucleation score was -0.065 ± 0.86.

As for FLPRSYCVFSWFHLSVSTAR, the amyloid nucleation score result was “inactive”.

On to FLQFF, for which the amyloid nucleation score is -0.656 ± 0.47.

Consider FLQNMSVILTIMNDIKIMED, for which the amyloid nucleation score turned out to be 6.161 ± 0.047.

For the substance FLTAAWTSGHDGREFSPRPF, the amyloid nucleation score came out at 2.61 ± 0.16.

Take FLTIYGLNPSDYVGKVRQRD: the amyloid nucleation score came out at 0.236 ± 0.34.

Take FMHAGIYL: the amyloid nucleation score is 0.043 ± 1.

For FMIVKFLIL, the amyloid nucleation score was 1.5 ± 0.26.

FMKSKAAAYS gave an amyloid nucleation score of -0.247 ± 0.63.

Substance FMLVMFYWIYFNYSNVFRD came in with an amyloid nucleation score of -0.669 ± 0.78.

In turn, FMLYTTVTERAWRHLN yielded an amyloid nucleation score of 0.395 ± 0.36.

The substance FMRMFVIIKHHVEVRRPRFI gave an amyloid nucleation score of 0.413 ± 0.7.

Consider FMRPVYHYMPSMTSYVSLDT, for which the amyloid nucleation score result is “inactive”.

FMTSDPYVLIHQALVRINEY had an amyloid nucleation score of 4.58 ± 0.095.

With FNAAYIAGVGNLMTWDNSSN, the amyloid nucleation score was -1.07 ± 0.61.

Consider FNFMFAKDGGSDTFLRFDRV, for which the amyloid nucleation score is 4.83 ± 0.11.

On to FNFRYPKDRGVSIVGCNFPM, for which the amyloid nucleation score was -0.065 ± 0.51.

On to FNGGNTFVCVSLDTCWNGWY, for which the amyloid nucleation score was 7.54 ± 0.085.
